Earlier results in patent US20180296542A1, “IMINOSUGARS FOR IMPROVING BONE MINERAL DENSITY IN BONE DISEASE” (Saint Louis University, priority 2015, published 2018).

Tested on: Akp2^−/− mice
Settings: cited from earlier work

B1: untagged, native human TNSALP: untagged, native human tissue nonspecific alkaline phosphatase used for ERT in Akp2−/− mice (protein, UniProt P05186 18-501, looked up)
Alkaline phosphatase, …: LVPEKEKDPKYWRDQAQETLKYALELQKLNTNVAKNVIMFLGDGMGVSTVTAARILKGQLHHNPGEETRLEMDKFPFVALSKTYNTNAQVPDSAGTATAYLCGVKANEGTVGVSAATERSRCNTTQGNEVTSILRWAKDAGKSVGIVTTTRVNHATPSAAYAHSADRDWYSDNEMPPEALSQGCKDIAYQLMHNIRDIDVIMGGGRKYMYPKNKTDVEYESDEKARGTRLDGLDLVDTWKSFKPRYKHSHFIWNRTELLTLDPHNVDYLLGLFEPGDMQYELNRNNVTDPSLSEMVVVAIQILRKNPKGFFLLVEGGRIDHGHHEGKAKQALHEAVEMDRAIGQAGSLTSSEDTLTVVTADHSHVFTFGGYTPRGNSIFGLAPMLSDTDKKPFTAILYGNGPGYKVVGGERENVSMVDYAHNNYQAQSAVPLRHETHGGEDVAVFSKGPMAHLLHGVHEQNYVPHVMAYAACIGANLGHCAPAS
In the case of B1, the “Bone findings after 6 months” value (after 6 months) is given as “hypomineralization and abnormal proliferative chondrocytes presented”, the “Growth and fertility compared to untreated knock-out animals” value is given as “better growth and normal fertility” and the “Length of life compared to untreated knock-out animals” value is given as “longer lives”.
